Assay results from IntAct's records for PubMed 16717101.

B1: Regulatory protein SIR4 (Saccharomyces cerevisiae), P11978 (parent)
chain: MPNDNKTPNRSSTPKFTKKPVTPNDKIPEREEKSNEVKTPKIPLFTFAKSKNYSRPSTAIHTSPHQPSDVKPTSHKQLQQPKSSPLKKNNYNSFPHSNLEKISNSKLLSLLRSKTSAGRIESNNPSHDASRSLASFEQTAFSRHAQQQTSTFNSKPVRTIVPISTSQTNNSFLSGVKSLLSEEKIRDYSKEILGINLANEQPVLEKPLKKGSADIGASVISLTKDKSIRKDTVEEKKEEKLNIGKNFAHSDSLSVPKVSAGDSGISPEESKARSPGIAKPNAIQTEVYGINEESTNERLEINQEKPVKLDENSANSTVASALDTNGTSATTETLTSKKIVPSPKKVAIDQDKITLHDEKTLAPSKHQPITSEQKMKEDADLKRMEILKSPHLSKSPADRPQGRRNSRNFSTRDEETTKLAFLVEYEGQENNYNSTSRSTEKKNDMNTSAKNKNGENKKIGKRPPEIMSTEAHVNKVTEETTKQIQSVRIDGRKVLQKVQGESHIDSRNNTLNVTPSKRPQLGEIPNPMKKHKPNEGRTPNISNGTINIQKKLEPKEIVRDILHTKESSNEAKKTIQNPLNKSQNTALPSTHKVTQKKDIKIGTNDLFQVESAPKISSEIDRENVKSKDEPVSKAVESKSLLNLFSNVLKAPFIKSESKPFSSDALSKEKANFLETIASTEKPENKTDKVSLSQPVSASKHEYSDNFPVSLSQPSKKSFANHTEDEQIEKKKICRGRMNTIITHPGKMELVYVSDSDDSSSDNDSLTDLESLSSGESNEIKVTNDLDTSAEKDQIQAGKWFDPVLDWRKSDRELTKNILWRIADKTTYDKETITDLIEQGIPKHSYLSGNPLTSVTNDICSVENYETSSAFFYQQVHKKDRLQYLPLYAVSTFENTNNTEKNDVTNKNINIGKHSQEQNSSSAKPSQIPTVSSPLGFEETKLSTTPTKSNRRVSHSDTNSSKPKNTKENLSKSSWRQEWLANLKLISVSLVDEFPSELSDSDRQIINEKMQLLKDIFANNLKSAISNNFRESDIIILKGEIEDYPMSSEIKIYYNELQNKPDAKKARFWSFMKTQRFVSNMGFDIQKSCEPVSISTSVKPHVVEPEHMADAKIMPKDILQITKKPLMVKNVKPSSPPDVKSLVQLSTMETKTLPEKKQFDSIFNSNKAKIIPGNGKHASENISLSFSRPASYGYFSVGKRVPIVEDRRVKQLDDITDSNTTEILTSVDVLGTHSQTGTQQSNMYTSTQKTELEIDNKDSVTECSKDMKEDGLSFVDIVLSKAASALDEKEKQLAVANEIIRSLSDEVMRNEIRITSLQGDLTFTKKCLENARSQISEKDAKINKLMEKDFQVNKEIKPY

Variants of: B1
Conditions: with sir3_yeast SIR3, P06701
Sequence of sir3_yeast SIR3, P06701 (P06701 whole entry): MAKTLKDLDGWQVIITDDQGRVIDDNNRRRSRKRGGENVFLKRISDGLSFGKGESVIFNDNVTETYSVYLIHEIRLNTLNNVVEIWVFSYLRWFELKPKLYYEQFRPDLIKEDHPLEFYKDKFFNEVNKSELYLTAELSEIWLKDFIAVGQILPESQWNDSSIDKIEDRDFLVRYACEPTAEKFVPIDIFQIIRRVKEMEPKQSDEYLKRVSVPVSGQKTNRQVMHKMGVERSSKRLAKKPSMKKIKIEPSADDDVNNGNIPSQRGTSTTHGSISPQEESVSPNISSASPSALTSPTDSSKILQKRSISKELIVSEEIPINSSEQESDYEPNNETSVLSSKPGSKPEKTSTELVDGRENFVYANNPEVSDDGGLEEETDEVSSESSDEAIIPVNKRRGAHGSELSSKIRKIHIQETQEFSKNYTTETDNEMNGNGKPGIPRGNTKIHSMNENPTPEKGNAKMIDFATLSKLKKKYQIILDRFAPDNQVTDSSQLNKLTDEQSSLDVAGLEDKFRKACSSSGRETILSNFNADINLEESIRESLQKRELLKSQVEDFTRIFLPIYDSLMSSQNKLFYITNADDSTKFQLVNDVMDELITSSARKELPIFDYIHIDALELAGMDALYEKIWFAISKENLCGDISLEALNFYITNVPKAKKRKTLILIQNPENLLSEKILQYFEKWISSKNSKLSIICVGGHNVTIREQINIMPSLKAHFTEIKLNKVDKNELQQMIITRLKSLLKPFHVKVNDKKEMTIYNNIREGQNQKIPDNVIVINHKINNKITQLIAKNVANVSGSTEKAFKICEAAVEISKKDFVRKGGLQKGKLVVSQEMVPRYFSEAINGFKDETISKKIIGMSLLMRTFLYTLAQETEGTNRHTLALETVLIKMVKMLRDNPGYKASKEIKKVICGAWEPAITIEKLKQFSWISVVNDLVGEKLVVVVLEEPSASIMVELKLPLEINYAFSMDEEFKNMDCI

Variant | effect of a mutation on the interaction
M1307N | decreasing interaction
